We go through four molecules from patent US7057015B1, “Hormone receptor functional dimers and methods of their use” (The Salk Institute for Biological Studies, priority 1999, dated 2006).

Bounds are passed on as bounds.

Data set [1] relates to E5U (EcR-Usp fusion, 5 linker segments) (Drosophila melanogaster). Briefly: EMSA. The note with it: nearly ligand-insensitive; not significantly above E0U. Background: In EMSA bound probe runs differently from free probe, usually more slowly.
The subject of data set [2] is E5R (EcR-RXR fusion, 5 linker segments) (Drosophila melanogaster / Homo sapiens). Description: EMSA. As to conditions: 1 uM muristerone A, 23 C.
The test system of data set [3] is E0U (EcR-Usp fusion, 0 linker segments) (Drosophila melanogaster). Description: EMSA. The note with it: nearly ligand-insensitive.
The subject of data set [4] is R0E (RXR-EcR fusion, 0 linker segments) (Homo sapiens / Drosophila melanogaster). Description: EMSA. The note with it: 1 uM muristerone A, 23 C.
For data set [5], the system named is U0E (Usp-EcR fusion, 0 linker segments) (Drosophila melanogaster). Description: EMSA. As to conditions: barely detectable endodimer band; 1 uM muristerone A, 23 C.
Data set [6] concerns R5E (RXR-EcR fusion, 5 linker segments) (Homo sapiens / Drosophila melanogaster). Briefly: EMSA. As to conditions: 1 uM muristerone A, 23 C.
For data set [7], the system named is E0R (EcR-RXR fusion, 0 linker segments) (Drosophila melanogaster / Homo sapiens). Description: EMSA. The note with it: 1 uM muristerone A, 23 C.
Data set [8] has as its system mammals and other non-insect species. The note with it: in vivo; cited from earlier work.
Data set [9] addresses T1, Drosophila melanogaster ecdysone receptor (monomeric) (Drosophila melanogaster, UniProt P34021 1-878).
T1 sequence (looked up): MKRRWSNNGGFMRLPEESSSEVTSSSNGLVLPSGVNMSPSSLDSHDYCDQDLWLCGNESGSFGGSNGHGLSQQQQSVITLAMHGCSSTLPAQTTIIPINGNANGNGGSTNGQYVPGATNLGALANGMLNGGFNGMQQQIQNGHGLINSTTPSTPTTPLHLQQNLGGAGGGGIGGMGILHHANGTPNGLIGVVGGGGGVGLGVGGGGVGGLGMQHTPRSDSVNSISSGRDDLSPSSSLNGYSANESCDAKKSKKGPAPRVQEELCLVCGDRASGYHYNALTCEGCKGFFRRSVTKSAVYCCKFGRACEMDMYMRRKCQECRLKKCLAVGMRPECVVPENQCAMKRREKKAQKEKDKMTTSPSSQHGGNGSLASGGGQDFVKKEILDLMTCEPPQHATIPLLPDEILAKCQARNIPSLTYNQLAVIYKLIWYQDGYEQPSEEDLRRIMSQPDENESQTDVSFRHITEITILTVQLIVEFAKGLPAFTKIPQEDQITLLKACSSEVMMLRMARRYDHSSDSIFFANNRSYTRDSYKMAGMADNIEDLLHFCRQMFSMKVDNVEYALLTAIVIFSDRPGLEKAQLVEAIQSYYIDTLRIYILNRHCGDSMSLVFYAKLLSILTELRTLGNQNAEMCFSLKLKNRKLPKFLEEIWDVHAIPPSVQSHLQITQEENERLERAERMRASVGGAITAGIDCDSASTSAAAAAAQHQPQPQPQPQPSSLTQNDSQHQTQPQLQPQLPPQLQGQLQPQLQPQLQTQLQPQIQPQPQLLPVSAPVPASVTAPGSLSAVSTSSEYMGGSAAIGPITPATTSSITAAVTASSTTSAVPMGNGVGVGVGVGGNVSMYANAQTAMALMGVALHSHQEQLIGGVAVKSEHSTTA
Description: cell-based or functional assay.

In data set [10] the test system is E4-luc reporter plasmid in 293 cells. Description: Transient transfection luciferase transactivation assay with E4-luc reporter. In kind it is cell-based, human. As to the method: For quantitative transactivation analysis, transfections were performed in triplicate in 24-well plates by calcium-phosphate co-precipitation with 100 ng of an individual receptor, the reporter plasmid E4-luc, and pCH110 (SV40-β-galactosidase) as an internal control. Briefly, the reporter plasmid, E4-luc, was constructed of 4-tandem EcREs inserted upstream of a thymidine kinase gene minimal promoter directing luciferase expression. […] 1 μM ligand was added at the time of transfection, and the cells were harvested for luciferase assay 40 hours later. Harvested cell extracts were split, and one part was analyzed in a luminometer for luciferase activity and the other part was analyzed for β-galactosidase activity using an orthonitrophenyl galactoside assay by standard methods. Luciferase levels were normalized to β-galactosidase values to correct for slight differences in transfection efficiency.

Another data set relates to EcRE probe. Description: Gel mobility shift analysis of EcRE probe binding by FDs. As to conditions: 1 μM murA vs vehicle, extracts of transfected 293 cells. As to the method: Preparation of the invention fusion protein FDs for gel shift analysis by transient transfection into 293 cells was as follows: 300 ng of individual receptor plasmids and 100 ng pCH110 internal control plasmid were cotransfected into 293 cells at 60% density in Costar 6-well plates. One well of each group was treated with 1 μM murA as ligand at the time of transfection. 40 hours later, extracts of transfected 293 cells were made by scraping the cells from a well into a low volume of phosphate buffered saline, pelleting the cells, resuspending them in 200 μl 5×gel shift buffer (Yao et al., supra 1992), and sonicating with a Kontes cell disrupter for three 10-sec. bursts at output level 30. The extracts were then centrifuged to clear the lysate and the protein was quantified. […]
Comparative gel mobility shift analyses of FDs with control in vitro translated receptor complexes were performed using double stranded EcRE probes and labeled by Klenow fill using ^32P-dCTP and cold dGAT by standard methods. […] Band volumes were quantified using laser scanning densitometry.
An autoradiogram of FDs and controls treated either with control vehicle or with 1 μM of murA as ligand was made with markers indicating endodimer FD or wild type receptor-binding complex band shifts. […] FIG. 2A is a graph that quantifies endodimer-sized band volumes obtained from the autoradiogram.

Regarding EcRE probe, the binding signal (fold vs UNE constructs (average of ENU)) in [1] and in data set [3] was 10 in each case. The binding signal (fold increase with ligand) in data set [2] came to 11; in data set [4], 4; in [5], 2; in data set [6] it was 5; in [7], 7.
Consider `CCc1ccc(C(=O)NN(C(=O)c2cc(C)cc(C)c2)C(C)(C)C)cc1` [Tebufenozide, tebufenozide], for which, in [8], the “toxicity to mammals and other non-insect species” value was “very low toxicity”.

B1: VP16-fused monomeric RXR (other)
chain: MDTKHFLPLDFSTQVNSSLTSPTGRGSMAAPSLHPSLGPGIGSPGQLHSPISTLSSPINGMGPPFSVISSPMGPHSMSVPTTPTLGFSTGSPQLSSPMNPVSSSEDIKPPLGLNGVLKVPAHPSGNMASFTKHICAICGDRSSGKHYGVYSCEGCKGFFKRTVRKDLTYTCRDNKDCLIDKRQRNRCQYCRYQKCLAMGMKREAVQEERQRGKDRNENEVESTSSANEDMPVERILEAELAVEPKTETYVEANMGLNPSSPNDPVTNICQAADKQLFTLVEWAKRIPHFSELPLDDQVILLRAGWNELLIASFSHRSIAVKDGILLATGLHVHRNSAHSAGVGAIFDRVLTELVSKMRDMQMDKTELGCLRAIVLFNPDSKGLSNPAEVEALREKVYASLEAYCKHKYPEQPGRFAKLLLRLPALRSIGLKCLEHLFFFKLIGDTPIDTFLMEMLEAPHQMT
For B1, in [9], the “E-mediated transactivation of the E4-luc luciferase reporter in 293 cells” value is over 5 fold.

B2: E5R: fusion protein: Drosophila EcR at amino terminus, 5 linker segments, RXR (protein)
chain: MKRRWSNNGGFMRLPEESSSEVTSSSNGLVLPSGVNMSPSSLDSHDYCDQDLWLCGNESGSFGGSNGHGLSQQQQSVITLAMHGCSSTLPAQTTIIPINGNANGNGGSTNGQYVPGATNLGALANGMLNGGFNGMQQQIQNGHGLINSTTPSTPTTPLHLQQNLGGAGGGGIGGMGILHHANGTPNGLIGVVGGGGGVGLGVGGGGVGGLGMQHTPRSDSVNSISSGRDDLSPSSSLNGYSANESCDAKKSKKGPAPRVQEELCLVCGDRASGYHYNALTCEGCKGFFRRSVTKSAVYCCKFGRACEMDMYMRRKCQECRLKKCLAVGMRPECVVPENQCAMKRREKKAQKEKDKMTTSPSSQHGGNGSLASGGGQDFVKKEILDLMTCEPPQHATIPLLPDEILAKCQARNIPSLTYNQLAVIYKLIWYQDGYEQPSEEDLRRIMSQPDENESQTDVSFRHITEITILTVQLIVEFAKGLPAFTKIPQEDQITLLKACSSEVMMLRMARRYDHSSDSIFFANNRSYTRDSYKMAGMADNIEDLLHFCRQMFSMKVDNVEYALLTAIVIFSDRPGLEKAQLVEAIQSYYIDTLRIYILNRHCGDSMSLVFYAKLLSILTELRTLGNQNAEMCFSLKLKNRKLPKFLEEIWDVHAIPPSVQSHLQITQEENERLERAERMRASVGGAITAGIDCDSASTSAAAAAAQHQPQPQPQPQPSSLTQNDSQHQTQPQLQPQLPPQLQGQLQPQLQPQLQTQLQPQIQPQPQLLPVSAPVPASVTAPGSLSAVSTSSEYMGGSAAIGPITPATTSSITAAVTASSTTSAVPMGNGVGVGVGVGGNVSMYANAQTAMALMGVALHSHQEQLIGGVAVKSEHSTTAGPTGPGPGGGSGGGSGTGPGGGSGGGSGTGPGGGSGGGSGTGPGGGSGGGSGTGPGGGSGGGSGTMDTKHFLPLDFSTQVNSSLTSPTGRGSMAAPSLHPSLGPGIGSPGQLHSPISTLSSPINGMGPPFSVISSPMGPHSMSVPTTPTLGFSTGSPQLSSPMNPVSSSEDIKPPLGLNGVLKVPAHPSGNMASFTKHICAICGDRSSGKHYGVYSCEGCKGFFKRTVRKDLTYTCRDNKDCLIDKRQRNRCQYCRYQKCLAMGMKREAVQEERQRGKDRNENEVESTSSANEDMPVERILEAELAVEPKTETYVEANMGLNPSSPNDPVTNICQAADKQLFTLVEWAKRIPHFSELPLDDQVILLRAGWNELLIASFSHRSIAVKDGILLATGLHVHRNSAHSAGVGAIFDRVLTELVSKMRDMQMDKTELGCLRAIVLFNPDSKGLSNPAEVEALREKVYASLEAYCKHKYPEQPGRFAKLLLRLPALRSIGLKCLEHLFFFKLIGDTPIDTFLMEMLEAPHQMT
As for B2, the “Rel. Ind. = relative induction of individual receptor groups” value in data set [10] (+ligand (1 μM murA) versus −ligand) was determined as 8.4 fold. In addition, the “+Lig/E4 = luciferase activity vs. reporter only with ligand” value in data set [10] (transiently co-transfected 293 cells, 1 μM murA, relative to E4-luc reporter only) amounted to 3.89. For the same molecule, the “−Lig/E4 = luciferase activity vs. reporter only without ligand” value in data set [10] (transiently co-transfected 293 cells, without ligand, relative to E4-luc reporter only) was 0.46. Moreover, the “relative-fold increase in response element binding (endodimer band) resulting from ligand treatment” value with EcRE probe was found to be 11 fold.
